What was measured:
[1] = biological target: Glutamine synthetase from Helicobacter pylori (Helicobacter pylori) (UniProt P94845); test: crystal structure; apo Hpy GS; crystals in 10% (v/v) PEG 6,000, 100 mM HEPES pH 7.0, 50 mM choline; 2.8 Å; hexamer in the asymmetric unit, dodecamer generated by two-fold symmetry
[2] = biological target: Glutamine synthetase from Helicobacter pylori (Helicobacter pylori) (UniProt P94845); test: crystal structure; Hpy GS mixed with 5 mM ATP, 5 mM PPT, 5 mM magnesium chloride; crystals in 2.0 M sodium formate, 100 mM sodium citrate pH 5.0; 2.9 Å; twelve subunits in the asymmetric unit

Glutamine synthetase from Helicobacter pylori (from UniProt P94845 1-481) (enzyme)
stoichiometry N [1]: 12
stoichiometry N [2]: 12

Reference: publication PMC6076278
